In US20030143191A1, “Chemokine beta-1 fusion proteins” (priority 2001, published 2003):

Tests used:
monocytes = settings: cited from earlier work
CCR1 = target: T1, CCR1 (Homo sapiens, UniProt P32246); settings: Detheux et al., J. Exp. Med. 192:1501-1508 (2000); cited from earlier work
T1 sequence (P32246 1-355): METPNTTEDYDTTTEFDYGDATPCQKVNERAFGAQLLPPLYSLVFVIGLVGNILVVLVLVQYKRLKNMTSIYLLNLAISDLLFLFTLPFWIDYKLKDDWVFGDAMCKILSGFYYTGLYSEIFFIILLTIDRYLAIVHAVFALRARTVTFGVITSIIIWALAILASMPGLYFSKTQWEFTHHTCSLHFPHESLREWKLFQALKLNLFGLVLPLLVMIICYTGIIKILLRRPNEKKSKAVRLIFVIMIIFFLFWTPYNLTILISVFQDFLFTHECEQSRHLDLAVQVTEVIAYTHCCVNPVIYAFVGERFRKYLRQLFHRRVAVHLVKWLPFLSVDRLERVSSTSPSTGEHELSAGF

human monocytes = assay: Cytokine release from human monocytes (ELISA of culture supernatants); type: cell-based; settings: human monocytes (1×10^6), 1 day incubation
Method: To evaluate the in vitro activity of Ckb1(G-28-N93) and Ckb1(G-28-N93) fused to human serum albumin, proteins produced by these constructs were incubated with human monocytes (1×10^6) for 1 day. Culture supernatants were collected and analyzed by ELISA for cytokine content.

[1] = system: Jaks-STATS signal transduction pathway; assay: Jurkat:GAS-SEAP reporter assay for T-cell activity; type: cell-based; settings: Jurkat:GAS-SEAP cells; 100 Unit/ml; positive control wells; 48 hrs
Method: The following protocol is used to assess T-cell activity by identifying factors, and determining whether a fusion protein (e.g. albumin fusion protein) of the invention proliferates and/or differentiates T-cells. T-cell activity is assessed using the GAS/SEAP/Neo construct produced in Example 29. Thus, factors that increase SEAP activity indicate the ability to activate the Jaks-STATS signal transduction pathway. The T-cell used in this assay is Jurkat T-cells (ATCC Accession No. TIB-152), although Molt-3 cells (ATCC Accession No. CRL-1552) and Molt-4 cells (ATCC Accession No. CRL-1582) cells can also be used.
Jurkat T-cells are lymphoblastic CD4^+ Th1 helper cells. In order to generate stable cell lines, approximately 2 million Jurkat cells are transfected with the GAS-SEAP/neo vector using DMRIE-C (Life Technologies)(transfection procedure described below). The transfected cells are seeded to a density of approximately 20,000 cells per well and transfectants resistant to 1 mg/ml genticin selected. Resistant colonies are expanded and then tested for their response to increasing concentrations of interferon gamma.
Specifically, the following protocol will yield sufficient cells for 75 wells containing 200 ul of cells. Thus, it is either scaled up, or performed in multiple to generate sufficient cells for multiple 96 well plates. […]

[2] = system: Jaks-STATS signal transduction pathway; assay: GAS-SEAP/U937 reporter assay for myeloid activity; type: cell-based; settings: GAS-SEAP/U937 cells; 100 Unit/ml; positive control wells; 48 to 72 hr
Method: The following protocol is used to assess myeloid activity of a fusion protein (e.g. albumin fusion protein) of the present invention by determining whether the fusion protein proliferates and/or differentiates myeloid cells. Myeloid cell activity is assessed using the GAS/SEAP/Neo construct produced in Example 29. Thus, factors that increase SEAP activity indicate the ability to activate the Jaks-STATS signal transduction pathway. The myeloid cell used in this assay is U937, a pre-monocyte cell line, although TF-1, HL60, or KG1 can be used.
To transiently transfect U937 cells with the GAS/SEAP/Neo construct produced in Example 29, a DEAE-Dextran method (Kharbanda et. al., 1994, Cell Growth & Differentiation, 5:259-265) is used. First, harvest 2×10^7 U937 cells and wash with PBS. The U937 cells are usually grown in RPMI 1640 medium containing 10% heat-inactivated fetal bovine serum (FBS) supplemented with 100 units/ml penicillin and […] streptomycin.
Next, suspend the cells in 1 ml of 20 mM Tris-HCl (pH 7.4) buffer containing 0.5 mg/ml DEAE-Dextran, 8 ug GAS-SEAP2 plasmid DNA, 140 mM NaCl, 5 mM KCl, 375 uM Na2HPO4.7H2O, 1 mM MgCl2, and 675 uM CaCl2. Incubate at 37 degrees C. for 45 min.
Wash the cells with RPMI 1640 medium containing 10% FBS and then resuspend in 10 ml complete medium and incubate at 37 degree C. for 36 hr. […]

CCR3 = target: T2, CCR3 (Homo sapiens, UniProt P51677); settings: Detheux et al., J. Exp. Med. 192:1501-1508 (2000); cited from earlier work
T2 sequence (P51677 1-355): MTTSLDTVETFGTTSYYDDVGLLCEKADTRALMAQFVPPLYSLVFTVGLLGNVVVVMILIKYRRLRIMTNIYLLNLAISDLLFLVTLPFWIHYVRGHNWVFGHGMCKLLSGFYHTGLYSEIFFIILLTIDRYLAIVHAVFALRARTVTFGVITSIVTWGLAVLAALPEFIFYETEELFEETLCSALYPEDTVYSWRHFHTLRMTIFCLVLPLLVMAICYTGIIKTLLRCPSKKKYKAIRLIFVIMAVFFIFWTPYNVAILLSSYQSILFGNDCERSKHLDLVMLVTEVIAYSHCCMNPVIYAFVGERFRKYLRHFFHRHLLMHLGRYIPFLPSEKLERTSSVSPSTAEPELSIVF

CCR5 = CCR5 (Homo sapiens, UniProt P51681); settings: Detheux et al., J. Exp. Med. 192:1501-1508 (2000); cited from earlier work
CCR5, sequence (P51681 whole entry, species assumed): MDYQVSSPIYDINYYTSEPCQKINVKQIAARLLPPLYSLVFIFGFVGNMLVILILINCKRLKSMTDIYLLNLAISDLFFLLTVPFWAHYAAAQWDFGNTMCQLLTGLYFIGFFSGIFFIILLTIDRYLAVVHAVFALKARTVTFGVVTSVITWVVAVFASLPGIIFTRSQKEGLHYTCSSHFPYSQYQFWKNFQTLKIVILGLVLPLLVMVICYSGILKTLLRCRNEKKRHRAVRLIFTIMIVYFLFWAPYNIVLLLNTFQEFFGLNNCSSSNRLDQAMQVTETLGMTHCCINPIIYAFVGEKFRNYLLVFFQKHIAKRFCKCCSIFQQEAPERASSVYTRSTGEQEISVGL

B1: Ckb1: human chemokine beta 1; mature form of 74 amino acids, amino acids 1-74 of SEQ ID NO:2 (protein, listed as Homo Sapiens)
chain: MKISVAAIPFFLLITIALGTKTESSSRGPYHPSECCFTYTTYKIPRQRIMDYYETNSQCSKPGIVFITKRGHSV
activation of monocytes (monocytes): weak activator | agonism / activation of CCR1 (CCR1): activates CCR1 at high (supraphysiological) concentrations

B2: Ckb1(G28-N93): Ckb1 polypeptide, residues G28-N93, not fused (protein)
chain: GPYHPSECCFTYTTYKIPRQRIMDYYETNSQCSKPGIVFITKRGHSVCTNPSDKWVQDYIKDMKEN
release of IL-1β (human monocytes): induced release | release of IL-6 (human monocytes): induced release | release of TNF-alpha (human monocytes): induced release

B3: IFN-g: IFN family ligand; positive control known to activate Jurkat T cells and U937 cells (protein, UniProt P01579 24-161, looked up)
Interferon gamma: QDPYVKEAENLKKYFNAGHSDVADNGTLFLGILKNWKEESDRKIMQSQIVSFYFKLFKNFKDDQSIQKSVETIKEDMNVKFFNSNKKKRDDFEKLTNYSVTDLNVQRKAIHELIQVMAELSPAAKTGKRKRSQMLFRG
induction (SEAP reporter activity) [1]: Over 30 fold | induction (SEAP reporter activity) [2]: Over 30 fold

B4: Ckb1 [9-74]: N-terminal deletion variant of Ckb1 consisting of amino acids 9-74 of SEQ ID NO:2 (Detheux et al.) (protein, listed as Homo Sapiens)
chain: PFFLLITIALGTKTESSSRGPYHPSECCFTYTTYKIPRQRIMDYYETNSQCSKPGIVFITKRGHSV
agonism / activation of CCR1 (CCR1): potent agonist | agonism of CCR3 (CCR3): potent agonist | agonism of CCR5 (CCR5): potent agonist
